Experimental data taken from US20190135876A1 (TRELLIS BIOSCIENCE, published 2019).

T1: RSV G[169-198] (respiratory syncytial virus)
T1 construct: also called synthetic RSV G peptide
T1 peptide: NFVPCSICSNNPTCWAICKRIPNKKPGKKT

T2: CX3CR1 (human, UniProt P49238 1-355)
T2 sequence: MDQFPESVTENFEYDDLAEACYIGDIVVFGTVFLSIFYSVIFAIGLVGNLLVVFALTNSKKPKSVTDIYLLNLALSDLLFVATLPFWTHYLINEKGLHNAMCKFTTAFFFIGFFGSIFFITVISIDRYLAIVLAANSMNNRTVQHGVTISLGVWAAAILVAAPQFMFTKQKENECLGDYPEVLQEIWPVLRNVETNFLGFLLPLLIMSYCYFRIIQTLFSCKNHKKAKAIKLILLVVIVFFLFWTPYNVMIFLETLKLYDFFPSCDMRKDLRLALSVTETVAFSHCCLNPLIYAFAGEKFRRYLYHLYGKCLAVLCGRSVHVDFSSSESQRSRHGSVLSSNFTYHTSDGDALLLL

B1: mAb 3D3 (antibody, V domains shown)
VH: EEQLVESGGGLVQPGRSLRLSCVGSGLRFEEHAMHWVRQAPGRGLEWVSGISWNSGSVGYADSVKGRFTTSRDNAKDILFLEMNTLRSEDTALYFCAIMVATTKNDFHYYKDVWGKGTTVTVSS
VL: QIVLTQSPATLSLSPGERATLSCRASQSVSNHLAWYQQKPGQAPRLLIYETSNRATGIPPRFSGSGSGTDFTLTISSLEPEDFAVYYCQQRNNWYTFGQGTKLEIK
B2: scFv 2D10 (scFv)
scFv: QVQLVQSGPEVKKPGASVRLSCKASGYVFTNYGVSWVRQAPGQGLEWMGWSSPYNGNTYYAQKLKARVTMTTDTSTNTAYMELRSLRSDDTAVYYCGRDMLGVVQAVAGPFDSWGQGTLVTVSSASGGGGSGGGGSGGGGSGGGDTPMTQSPSSVSASVGDRVTISCRASQGISNSLAWYQQKLGKAPQLLIYAASSLQSGVPSRFSGSGSGTDFTLTISSLQPEDFATYYCQQTNTFPFTFGPGTKVEVRR
notes: Expressed in Drosophila S2 cells with BiP signal; Twin-Strep tag removed with thrombin before use; A few vector residues probably remain at both ends (RS; ASLVPR); also called recombinant single-chain variable fragment (scFv) of 2D10
B3: RSV G[161-197] (peptide)
peptide: MGNDFHFEVFNFVPCSICSNNPTCWAICKRIPNKKPGKKHHHHHH
B4: RSV G ectodomain (G[ecto]) (other)
chain: SANHKVTPTTAIIQDATSQIKNTTPTYLTQNPQLGISPSNPSEITSQITTILASTTPGVKSTLQSTTVKTKNTTTTQTQPSKPTTKQRQNKPPSKPNNDFHFEVFNFVPCSICSNNPTCWAICKRIPNKKPGKKTTTKPTKKPTLKTTKKDPKPQTTKSKEVPTTKPTEEPTINTTKTNIITTLLTSNTTGNPELTSQMETFHSTSSEGNPSPSQVSTTSEYPSQPSSPPNTPRQHHHHHHGWSHPQFEKGGGSGGGSGGGSWSHPQFEK
B5: mAb 2D10 (antibody, V domains shown)
VH: QVQLVQSGPEVKKPGASVRLSCKASGYVFTNYGVSWVRQAPGQGLEWMGWSSPYNGNTYYAQKLKARVTMTTDTSTNTAYMELRSLRSDDTAVYYCGRDMLGVVQAVAGPFDSWGQGTLVTVSS
VL: DTPMTQSPSSVSASVGDRVTISCRASQGISNSLAWYQQKLGKAPQLLIYAASSLQSGVPSRFSGSGSGTDFTLTISSLQPEDFATYYCQQTNTFPFTFGPGTKVEVRR

What was measured:
CX3CR1 (human) = CX3CR1 (human) (UniProt P49238); experiment: cell-based or functional assay; settings: scale: chemotactic index
RSV G[161-197] = biological target: B3; experiment: cell-based or functional assay
RSV G[169-198] = biological target: T1, RSV G[169-198]; experiment: complex formation and X-ray crystal structure
Source text: Diffraction data from a single crystal were processed with HKL2000.

CX3CR1 [1] = biological target: T2, CX3CR1; experiment: cell-based or functional assay
CX3CR1 [2] = biological target: T2, CX3CR1; experiment: cell-based or functional assay; remark: listed apart in the source

| Molecule | Chemotactic activity (THP-1 chemotaxis assay, duplicate assays, standard deviation in parentheses) (CX3CR1 [2]) | further results |
| --- | --- | --- |
| anti-CX3CR1 rabbit polyclonal antibody (ThermoFisher Scientific Cat# PAS-19910) | – | chemotactic index of THP-1 cells pre-incubated with anti-CX3CR1 antibody, toward 5 nM RSV G[161-197] (CX3CR1 (human)): 1.1 |
| B1 | – | chemotactic index of THP-1 cells toward 5 nM RSV G[161-197] pre-incubated with 25 nM mAb (RSV G[161-197]): 1.5 chemotactic index (fold over serum-free media) |
| B2 | – | binding result (RSV G[169-198]): binds |
| B3 | – | chemotactic index of THP-1 cells toward 5 nM RSV G[161-197] (CX3CR1 [1]): 4.2 chemotactic index (fold over serum-free media) |
| B4 | – | chemotactic index of THP-1 cells toward 5 nM RSV G[ecto] (CX3CR1 [1]): 3.9 chemotactic index (fold over serum-free media) |
| NDFHFEVFNFVPCSICWNNPTCWAICKRIPNKKPGKK [RSV G (CCR) variant S177→W] | 1.2 chemotactic index (negative control PBS = 1.0) | – |
| NDFHFEVFNFVPCSICSNNPTCWAICKRIPNEEPGKK [RSV G (CCR) variant K192→E + K193 →E] | 2.5 chemotactic index (negative control PBS = 1.0) | – |
| NDFHFKVFNFVPCSICSNNPTCWAICERIPNKKPGKK [RSV G (CCR) variant E166→K + K187 →E] | 1.8 chemotactic index (negative control PBS = 1.0) | – |
| NDFHFEVFNFVPCSICSNNPTCWAICKRIPNKKPGKK [Wild type RSV G (CCR)] | 6.2 chemotactic index (negative control PBS = 1.0) | – |
| NDFYFEVFNFVPCSICSNNPTCWAICKRIPNKKPGKK [RSV G (CCR) variant H164→Y] | 3.8 chemotactic index (negative control PBS = 1.0) | – |
| NDFHFEVFNFVPCSICRNNPTCWAICKRIPNKKPGKK [RSV G (CCR) variant S177→R] | 0.9 chemotactic index (negative control PBS = 1.0) | – |
| NDFHFKVFNFVPCSICSNNPTCWAICKRIPNKKPGKK [RSV G (CCR) variant E166→K] | 1.6 chemotactic index (negative control PBS = 1.0) | – |
| B5 | – | chemotactic index of THP-1 cells toward 5 nM RSV G[161-197] pre-incubated with 25 nM mAb (RSV G[161-197]): 1 chemotactic index (fold over serum-free media) |
